By EC50 (read off the curve) is commonly meant the concentration that produces a half-maximal response.

Assay [1] concerns the target T1, human SIRPβ1 on CHO cells (co-transfected with DAP12) (human, UniProt O00241 30-398).
T1 construct: whole, on cells; co-transfected with DAP12; also called Human SIRPβ1 CHO
Put plainly: flow cytometry, CHO transfectants, anti-human IgG. In a few lines:
(§1)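 Antibodies are titrated onto CHO cells stably expressing the SIRP protein, then detected with fluorescent anti-human IgG. MFI is plotted against concentration. Crude PPE containing myc-tagged scFv is tested against the same lines and parental CHO-K1, with fold change <2.0 taken as non-binding.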
(In general: In flow cytometry, cells or beads pass a laser one at a time.)

For assay [2], the target named is T2, cynomolgus monkey SIRPγ on CHO cells (cynomolgus monkey, UniProt Q9P1W8 29-386 (human entry)).
T2 construct: also called Cyno SIRPγ CHO
T2 chain: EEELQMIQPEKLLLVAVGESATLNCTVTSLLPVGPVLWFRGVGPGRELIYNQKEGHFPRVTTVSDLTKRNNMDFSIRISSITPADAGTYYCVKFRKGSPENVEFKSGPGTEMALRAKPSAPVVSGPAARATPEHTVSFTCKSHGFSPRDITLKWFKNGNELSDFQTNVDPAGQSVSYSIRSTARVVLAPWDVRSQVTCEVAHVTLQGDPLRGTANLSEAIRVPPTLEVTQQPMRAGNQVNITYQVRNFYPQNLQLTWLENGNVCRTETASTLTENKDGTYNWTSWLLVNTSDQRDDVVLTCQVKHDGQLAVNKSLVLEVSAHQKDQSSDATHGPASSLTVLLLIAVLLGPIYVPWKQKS
Put plainly: flow cytometry, CHO transfectants, anti-human IgG. Summed up:
as §1

The target of assay [3] is T3, human SIRPγ on stably transfected CHO cells (human, UniProt Q9P1W8 29-387).
T3 construct: also called Human SIRPγ CHO
Put plainly: flow cytometry, CHO transfectants, anti-human IgG. Summed up: as §1

Assay [4] has as its target T4, cynomolgus monkey SIRPα on CHO cells (cynomolgus monkey, UniProt A0A2K5VYQ9 31-507).
T4 construct: whole, on cells; also called Cyno SIRPα CHO
T4 sequence: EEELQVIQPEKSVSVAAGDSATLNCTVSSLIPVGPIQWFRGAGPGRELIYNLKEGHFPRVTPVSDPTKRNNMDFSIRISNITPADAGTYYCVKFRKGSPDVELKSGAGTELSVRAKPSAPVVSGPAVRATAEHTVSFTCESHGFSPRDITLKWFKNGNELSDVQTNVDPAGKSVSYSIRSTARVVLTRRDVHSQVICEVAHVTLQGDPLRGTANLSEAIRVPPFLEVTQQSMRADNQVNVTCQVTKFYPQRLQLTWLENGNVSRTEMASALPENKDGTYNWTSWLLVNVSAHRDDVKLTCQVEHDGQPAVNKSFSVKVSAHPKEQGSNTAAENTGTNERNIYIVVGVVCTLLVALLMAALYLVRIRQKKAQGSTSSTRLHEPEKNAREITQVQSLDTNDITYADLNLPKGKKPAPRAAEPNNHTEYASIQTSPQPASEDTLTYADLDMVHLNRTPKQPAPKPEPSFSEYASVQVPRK
Put plainly: flow cytometry, CHO transfectants, anti-human IgG. Summed up: as §1

In assay [5] the target is T5, extracellular binding domain of human SIRPγ (plate-coated) (human, UniProt Q9P1W8 29-360).
T5 construct: also called hSIRPγ
Put plainly: competition ELISA, coated SIRPγ ECD, antibody 1 h then 10 µg/mL biotinylated CD47-Fc (blocked ligand), streptavidin-HRP. The protocol:
To carry out the competition experiment, the extracellular binding domain of SIRPγ was coated onto a high protein-binding plate and blocked. A titration of each SIRPγ antibody was incubated on the plate for 1 hour. […] Following a wash, streptavidin-HRP was added. The plate was washed again and developed using a chemiluminescent substrate. The plate was read on a plate reader to assess luminescence. […] A known blocker antibody was used as a positive control.

The target in assay [6] is T6, human SIRPγ on primary human T-cells (human, UniProt Q9P1W8 29-387).
T6 construct: endogenous SIRPγ of donor T-cells; also called SIRPγ on T-cells
Put plainly: flow cytometry, dye-conjugated antibody, human whole blood (3 donors). The protocol: Selected antibodies and an isotype control were tested for binding to human T-cells, B-cells, NK cells, monocytes, and granulocytes. […] Up to 50 μg/mL fluorescent dye-conjugated antibodies or isotype controls were incubated with whole blood from three normal donors. T-cells were identified as the CD14−, CD20−, SSClow, and CD3+ population or further identified to be CD4+ or CD8+ populations. B-cells were identified as the CD14−, SSClow, and CD20+ population. NK cells were identified as CD14−, CD20−, CD3−, and CD56+. Monocytes were identified as the SSClow and CD14+ population. Granulocytes were identified as the CD14−, CD20−, CD3−, SSChigh population. Graphs depict the median fluorescence intensity (MFI) of each population.

The target in assay [7] is T5, extracellular binding domain of human …. Put plainly: ELISA, coated SIRP ECD (2 µg/mL), anti-human IgG, luminescence. Summed up: (§2)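 Plate-coated SIRP extracellular domain (2 μg/mL), blocked, then exposed to purified antibodies in titration, after transient expression in Expi293F cells for 5 days and Protein A purification. Bound antibody is detected with anti-human IgG and a chemiluminescent substrate, and reported as relative luminescence units.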
For orientation: In an ELISA, binding on a coated surface is turned into a signal by an enzyme label.

Assay [8] addresses T7, Cynomolgus Monkey SIRPγ (plate-coated extracellular domain).
T7 construct: also called Cyno SIRPγ
T7 extracellular domain: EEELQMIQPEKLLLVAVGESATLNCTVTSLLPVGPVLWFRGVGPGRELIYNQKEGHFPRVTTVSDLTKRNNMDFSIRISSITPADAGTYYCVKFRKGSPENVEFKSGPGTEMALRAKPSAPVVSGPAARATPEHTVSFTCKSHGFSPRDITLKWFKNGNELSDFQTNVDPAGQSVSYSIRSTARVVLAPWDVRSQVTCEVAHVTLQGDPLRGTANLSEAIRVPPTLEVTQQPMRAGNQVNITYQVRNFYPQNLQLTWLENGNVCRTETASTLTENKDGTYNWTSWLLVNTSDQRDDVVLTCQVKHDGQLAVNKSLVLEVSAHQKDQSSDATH
Described as above. In a few lines: as §2

Assay [9] concerns the target T8, Human SIRPαV2 (plate-coated extracellular domain) (Homo sapiens, UniProt P78324).
T8 construct: extracellular domain
Described as above. Summed up:
as §2

The target of assay [10] is T9, bivalent human SIRPγ protein with mouse Fc (human, UniProt Q9P1W8 29-360).
T9 construct: also called Human SIRPγ-mFc
Put plainly: BLI Octet, antibody on AHC, global 1:2 model. In a few lines:
(§3)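 Antibodies captured on anti-human Fc biosensors, then exposed to SIRP protein at 200, 100, 50 and 25 nM for association, followed by wash buffer for dissociation. Kinetics fitted globally with a 1:2 binding model.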

Assay [11] deals with T10, human SIRPγ-His monomer protein (human, UniProt Q9P1W8 29-360).
T10 construct: also called hSIRPγ
Put plainly: BLI Octet, antibody on AHC, global 1:2 model. Summed up: as §3
(Biolayer interferometry detects binding as a change in optical thickness at a sensor tip.)

Assay [12] addresses T11, cynomolgus monkey SIRPγ-His monomer protein (cynomolgus monkey, UniProt Q9P1W8 29-359 (human entry), limits assumed).
T11 construct: also called Cyno SIRPγ; Cyno SIRPγ-His
T11 chain: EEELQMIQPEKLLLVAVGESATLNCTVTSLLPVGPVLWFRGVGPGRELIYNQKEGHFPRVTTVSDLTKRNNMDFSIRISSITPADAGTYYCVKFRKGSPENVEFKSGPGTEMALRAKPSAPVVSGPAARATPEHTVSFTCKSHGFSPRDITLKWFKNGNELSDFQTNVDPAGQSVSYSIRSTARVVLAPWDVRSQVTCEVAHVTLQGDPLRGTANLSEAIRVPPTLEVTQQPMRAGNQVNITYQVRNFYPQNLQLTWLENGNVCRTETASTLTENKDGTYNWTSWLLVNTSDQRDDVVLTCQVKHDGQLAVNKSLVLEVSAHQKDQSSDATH
Put plainly: BLI Octet, antibody on AHC, global 1:2 model. In a few lines: as §3

B1: Antibody 54 (antibody, V domains shown)
VH: QVQLVQSGAEVKKPGASVKVSCKASGYSFSDYYMHWVRQAPGQGLEWMGWMSPNSGNTGYAQKFQGRVTMTRDTSTSTVYMELSSLRSEDTAVYYCARQREEYGHYYYGMDVWGQGTMVTVSS
VL: EIVMTQSPATLSVSPGERATLSCRASQSLGSTYLAWYQQKPGQAPRLLIYGASTRATGIPARFSGSGSGTEFTLTISSLQSEDFAVYYCQQYYSSPPTFGQGTKVEIK
In the case of B1, the binding result in assay [1] and in assay [4] was “no binding (tested: about 20 µg/mL)” throughout. The entries for the “EC50 (read off the curve)” value in assay [2] and in assay [3] were approximately 0.8 µg/mL and approximately 0.9 µg/mL, respectively. The “IC50 (read off the curve)” value in [5] was approximately 0.1 µg/mL.

B2: Antibody 6 (antibody, V domains shown)
VH: QVQLVQSGAEVKKPGASVKVSCKASGYTFTGYHIHWVRQAPGQGLEWMGWINPNSGGTNYAQKFQGRVTMTRDTSINTAYMELNRLRSDDTAVFYCARERVGYCSRPSCLDDLNIWGQGTMVTVSS
VL: DIQMTQSPSTLSASVGDRVTITCRASQSISSWLAWYQQKPGKAPKLLIYKASSLETGVPSRFSGSGSGTEFTLTISSLQPDDFATYYCQQYDSYYTFGQGTKLEIK
For B2, the results for the “EC50 (read off the curve)” value in assay [6], in assay [7] and in assay [8] were approximately 0.1 µg/mL, approximately 0.02 µg/mL and approximately 0.1 µg/mL, respectively.

B3: Antibody 5 (antibody, V domains shown)
VH: QVQLVQSGAEVKKPGASVKVSCKASGYTFTGYHIHWVRQAPGQGLEWMGWINPNSGGTNYAQKFQGRVTMTRDTSINTAYMELNRLRSDDTAVFYCARERVGYCSRPSCLDDLNIWGQGTMVTVSS
VL: DIQMTQSPSTLSASVGDRVTITCRASQSISSWLAWYQQKPGKAPKLLIYKASSLETGVPSRFSGSGSGTEFTLTISSLQPDDFATYYCQQYDSYYTFGQGTKLEIK
Turning to B3, the concentration for a half-maximal effect (EC50 (read off the curve)) was approximately 0.1 µg/mL in assay [6], approximately 0.02 µg/mL in assay [7] and approximately 0.07 µg/mL in assay [8].

B4: Antibody 3 (antibody, V domains shown)
VH: QVQLVESGGGVVQPGRSLRLSCAASGFTFSNYGMHWVRQAPGKGLEWVAFIWYDGSNKNYADSVKGRFTISRDNPTNTLYLQMNSLRAEDTAVYYCAREEQWLDYWGQGTLVTVSS
VL: not shown
As to B4, the “EC50 (read off the curve)” value in [7] was approximately 0.1 µg/mL. In addition, the binding result in assay [9] was “no binding (tested: about 40 µg/mL)”.

B5: Antibody 4 (antibody, V domains shown)
VH: QVQLVESGGGVVQPGRSLRLSCAASGFTFSNYGMHWVRQAPGKGLEWVAFIWYDGSNKNYADSVKGRFTISRDNPTNTLYLQMNSLRAEDTAVYYCAREEQWLDYWGQGTLVTVSS
VL: not shown
On to B5, for which the concentration for a half-maximal effect (EC50 (read off the curve)) in [7] was approximately 0.1 µg/mL. For the same molecule, the binding result in assay [9] is reported as “no binding (tested: about 40 µg/mL)”.

B6: Antibody 88 (antibody, V domains shown)
VH: QVQLVQSGAEVKKPGASVKVSCKASGYTFTSHDINWVRQAPGQGLEWMGWMNANNGNAGYAQKFQGRVTMTRDTSTSTVYMELSSLRSEDTAVYYCAKDLSPSSSWSTYYYYYGMDVWGQGTMVTVSS
VL: DIQMTQSPSSLSASVGDRVTITCRASQSISNLLAWYQQKPGKAPKLLIYAASSLQSGVPSRFSGSGSGTDFTLTISSLQPEDFATYYCQQSYSTPYTFGQGTKLEIK
B6: the binding result in assay [1] and in assay [4] was “no binding (tested: about 30 µg/mL)” each time. For the same molecule, the figures for the half-maximal effective concentration (EC50 (read off the curve)) in assay [3] and in assay [7] were approximately 0.7 µg/mL and approximately 0.04 µg/mL, respectively. For the same molecule, the values for the Kd in assay [10], in [11] and in assay [12] were 50.6 nM, 136 nM and 67.8 nM, respectively. The “IC50 (read off the curve)” value in assay [5] was approximately 0.4 µg/mL.

B7: Antibody 84 (antibody, V domains shown)
VH: QVQLVQSGAEVKKPGASVKVSCKASGYTFTSYYMHWVRQAPGQGLEWMGWINPNSGNAGFAQKFQGRVTMTRDTSTSTVYMELSSLRSEDTAVYYCARGPVYSYGPFDYWGQGTLVTVSS
VL: DIQMTQSPSSLSASVGDRVTITCRASQGISTYLAWYQQKPGKAPKLLIYAASTLQSGVPSRFSGSGSGTDFTLTISSLQPEDFATYYCQQSHSAPITFGQGTKVEIK
Regarding B7, the binding result in [1] and in assay [4] was “no binding (tested: about 30 µg/mL)” throughout. Moreover, the “EC50 (read off the curve)” value in assay [2] and in [3] was approximately 0.2 µg/mL each time. Besides, the Kd in assay [10] came out at 2050 nM; in assay [12], 34.1 nM. The “IC50 (read off the curve)” value in [5] was approximately 0.2 µg/mL.

B8: Antibody 64 (antibody, V domains shown)
VH: QVQLVQSGAEVKKPGASVKVSCKASGYTFTSYYMHWVRQAPGQGLEWMGRINPNSGGTKYAQKFQGRVTMTRDTSTSTVYMELSSLRSEDTAVYYCARLGSAYFDLWGRGTLVTVSS
VL: DIQMTQSPSSLSASVGDRVTITCRASQSVDTWLAWYQQKPGKAPKLLIYEASTLESGVPSRFSGSGSGTDFTLTISSLQPEDFATYYCQQANSFPITFGQGTRLEIK
Regarding B8, the “EC50 (read off the curve)” value in assay [2] is approximately 0.4 µg/mL; in assay [3] it was approximately 0.1 µg/mL. Also, the binding result is “no binding (tested: about 20 µg/mL)” in [4] and “binds” in assay [8]. Moreover, in assay [5], the “IC50 (read off the curve)” value was approximately 0.2 µg/mL.

These data come from patent US20240400677A1 (ELECTRA THERAPEUTICS, published 2024).
